Source: US20070020327A1
Read-outs that look alike come from different tables or passages of the source. Each block holds one binder with its values, some of them ahead of it.

Assays:
HLA-A*0201 (human) [1] = test: competition for purified HLA with 125I-labelled standard peptide 941.01 [..] as competitor, gel filtration; settings: scale: ratio
HLA-A*0201 (human) [2] = test: competition binding to purified HLA, 125I-labelled standard peptide, gel filtration; ratio = IC50 standard / IC50 test peptide
HLA-A*0201 (human) [3] = test: competition with 125I-labelled standard peptide 941.01 for purified HLA, gel filtration; settings: scale: ratio
HLA-A*0206 (human) = test: as above; settings: scale: ratio
HLA-A*1101 (human) = test: competition with 125I-labelled standard peptide for purified HLA, gel filtration; settings: for binding affinity ratio: scale: ratio
HLA-A*0201 (human) [4] = test: inhibition of 125I probe peptide binding to purified HLA, gel filtration; ratio = IC50 standard/IC50 test
HLA-A*0201 (human) [5] = test: competition with 125I-labelled standard peptide 941.01 for purified HLA-A*0201, gel filtration
HLA-A*0301 (human) = test: competition with 125I-labelled standard peptide for purified HLA, gel filtration; settings: for binding affinity ratio: scale: ratio
[6] = remark: other sources report otherwise

binding affinity ratio (HLA-A*0201 (human) [1]): 0.0001
Binder: GVQRGNILNL (modifications not checked) [… (PSM position 252, 10-mer)]

binding affinity ratio (HLA-A*0201 (human) [1]): 0.0001
Binder: HVISNDVCA (modifications not checked) [… (PSA position 173, 9-mer)]

binding affinity ratio (HLA-A*0201 (human) [2]): 0.0001
Binder: DMKINCSGKI (modifications not checked) [… (PSM, position 191, 10 amino acids)]

binding affinity ratio (HLA-A*0201 (human) [2]): 0.0001
Binder: DLVLSIAL (modifications not checked) [DLVLSIAL (Kallikrein, position 3, 8 amino acids)]

binding affinity ratio (HLA-A*0201 (human) [3]; [6]): 0.0009
binding affinity ratio (HLA-A*0206 (human); [6]): 0.0001
Binder: GITSWGPEPCA (modifications not checked) [Kallikrein (hK2) peptide … (position 225)]

binding affinity ratio (IC50 of standard peptide / IC50 of test peptide) (HLA-A*1101 (human)): 0.2
Binder: LLSLYGIHK (modifications not checked) [… (PAP, position 243)]

binding affinity ratio (HLA-A*0201 (human) [1]): 0.0003
Binder: GVLVHPQWV (modifications not checked) [… (Kallikrein position 52 / PSA position 48, 9-mer)]

binding affinity ratio (HLA-A*0201 (human) [4]): 0.0002
Binder: ATARRPRWL (modifications not checked) [… (PSM, position 13)]

binding affinity ratio (HLA-A*0201 (human) [4]): 0.0002
Binder: ATEDTMTKL (modifications not checked) [… (PAP, position 227)]

binding affinity ratio (HLA-A*0201 (human) [2]): 0.0001
Binder: DVCAQVHPQKV (modifications not checked) [… (PSA, position 178, 11 amino acids)]

binding affinity ratio (HLA-A*0201 (human) [2]): 0.0002
Binder: EIVRSFGTL (modifications not checked) [… (PSM, position 397, 9 amino acids)]

binding affinity ratio (IC50 of standard peptide / IC50 of test peptide) (HLA-A*0201 (human) [5]): 0.0002
Binder: RAASLSLGFL (modifications not checked) [… (PAP, position 10)]

binding affinity ratio (HLA-A*0201 (human) [1]): 0.0001
Binder: ILNHMKRAT (modifications not checked) [… (PAP position 267, 9-mer)]

binding affinity ratio (HLA-A*0201 (human) [4]): 0.0005
Binder: ATLGKLSGL (modifications not checked) [… (PAP, position 189)]

binding affinity ratio (IC50 of standard peptide / IC50 of test peptide) (HLA-A*0301 (human)): 0.007
Binder: MSLLKNRFLR (modifications not checked) [… (PSA, position 99)]

binding affinity ratio (HLA-A*0201 (human) [1]): 0.0002
Binder: IATLGKLSGL (modifications not checked) [… (PAP position 188, 10-mer)]

binding affinity ratio (IC50 of standard peptide / IC50 of test peptide) (HLA-A*1101 (human)): 0.0002
binding affinity ratio (IC50 of standard peptide / IC50 of test peptide) (HLA-A*0301 (human)): 0.0003
Binder: LVFRHGDR (modifications not checked) [LVFRKGDR (PAP, position 40)]

binding affinity ratio (HLA-A*0201 (human) [2]): 0.0001
Binder: DAVKVMDLPT (modifications not checked) [… (PSA, position 130, 10 amino acids)]

binding affinity ratio (IC50 of standard peptide / IC50 of test peptide) (HLA-A*0201 (human) [5]): 0.0001
Binder: SIEGNYTLRV (modifications not checked) [… (PSM, position 455)]

binding affinity ratio (HLA-A*1101 (human)): 0.0005
binding affinity ratio (HLA-A*0301 (human)): 0.0002
Binder: VLTAAHCIR (modifications not checked) [… (PSA, position 56)]

binding affinity ratio (IC50 of standard peptide / IC50 of test peptide) (HLA-A*0301 (human); [6]): 0.0002
Binder: LGEYIRKRY (modifications not checked)

binding affinity ratio (HLA-A*0201 (human) [4]): 0.0002
Binder: AAAETLSEV (modifications not checked) [… (PSM, position 741)]

binding affinity ratio (IC50 of standard peptide / IC50 of test peptide) (HLA-A*0201 (human) [5]): 0.0001
Binder: SAVKNFTEI (modifications not checked) [… (PSM, position 634)]

binding affinity ratio (HLA-A*0201 (human) [2]): 0.0002
Binder: DLFGIWSKV (modifications not checked) [… (PAP, position 201, 9 amino acids)]

binding affinity ratio (HLA-A*0201 (human) [2]; [6]): 0.0003
Binder: DLPTQEPAL (modifications not checked) [… (PSA, position 136, 9 amino acids)]

binding affinity ratio (IC50 of standard peptide / IC50 of test peptide) (HLA-A*0201 (human) [5]): 0.0001
Binder: SIEPEEFL (modifications not checked) [SIEPEEFL (PSA, position 155)]

binding affinity ratio (HLA-A*1101 (human)): 0.0002
binding affinity ratio (HLA-A*0301 (human)): 0.0003
Binder: TLRGAVEPDR (modifications not checked) [… (PSM, position 361)]

binding affinity ratio (HLA-A*0201 (human) [1]): 0.0002
Binder: IINEDGNEI (modifications not checked) [… (PSM position 130, 9-mer)]

binding affinity ratio (HLA-A*0201 (human) [2]; [6]): 0.001
Binder: DLVLSIALSV (modifications not checked) [… (Kallikrein, position 3, 10 amino acids)]

binding affinity ratio (HLA-A*1101 (human); [6]): 0.012
binding affinity ratio (HLA-A*0301 (human); [6]): 0.0003
Binder: VTKFMLCAGR (modifications not checked) [… (PSA, position 188)]

binding affinity ratio (HLA-A*0201 (human) [2]): 0.0001
Binder: DLPTQEPA (modifications not checked) [DLPTQEPA (PSA, position 136, 8 amino acids)]

binding affinity ratio (HLA-A*1101 (human); [6]): 0.014
binding affinity ratio (HLA-A*0301 (human); [6]): 0.0094
Binder: TAAHCIRNK (modifications not checked) [… (PSA, position 58)]

binding affinity ratio (HLA-A*0201 (human) [1]): 0.001
Binder: ILLGRHSL (modifications not checked) [ILLGRHSL (PSA position 69, 8-mer)]

binding affinity ratio (HLA-A*0201 (human) [3]): 0.0001
binding affinity ratio (HLA-A*0206 (human)): 0.0003
Binder: GAVPLIQSRIV (modifications not checked) [Kallikrein (hK2) peptide … (position 16)]

binding affinity ratio (HLA-A*0201 (human) [1]): 0.0001
Binder: IAEAVGLPSI (modifications not checked) [… (PSM position 283, 10-mer)]

binding affinity ratio (HLA-A*0201 (human) [2]): 0.0003
Binder: DLHVISNDV (modifications not checked) [… (PSA, position 171, 9 amino acids)]

binding affinity ratio (HLA-A*0201 (human) [2]): 0.0001
Binder: DLHVISNDVCA (modifications not checked) [… (PSA, position 171, 11 amino acids)]

binding affinity ratio (HLA-A*0201 (human) [4]): 0.0008
Binder: ALPERPSLYT (modifications not checked) [… (PSA, position 231)]

binding affinity ratio (IC50 of standard peptide / IC50 of test peptide) (HLA-A*0201 (human) [5]): 0.0001
Binder: SIEPEEFL (modifications not checked) [SIEPEEFL (Kallikrein, position 159)]

binding affinity ratio (IC50 of standard peptide / IC50 of test peptide) (HLA-A*1101 (human)): 0.01
Binder: LTELYFEK (modifications not checked) [LTELYFEK (PAP, position 315)]

binding affinity ratio (IC50 of standard peptide / IC50 of test peptide) (HLA-A*0201 (human) [5]): 0.0001
Binder: RAFIDPLGL (modifications not checked) [… (PSM, position 673)]

binding affinity ratio (IC50 of standard peptide / IC50 of test peptide) (HLA-A*0201 (human) [5]): 0.0002
Binder: RAVCGGVLV (modifications not checked) [… (PSA, position 43)]

binding affinity ratio (HLA-A*1101 (human)): 0.0002
binding affinity ratio (HLA-A*0301 (human)): 0.0001
Binder: PANEYAYRR (modifications not checked) [… (PSM, position 273)]

binding affinity ratio (HLA-A*0201 (human) [2]): 0.0002
Binder: EAVGLPSIPV (modifications not checked) [… (PSM, position 285, 10 amino acids)]

binding affinity ratio (HLA-A*0201 (human) [1]): 0.0003
Binder: ILGGHRDSWV (modifications not checked) [… (PSM position 373, 10-mer)]

binding affinity ratio (IC50 of standard peptide / IC50 of test peptide) (HLA-A*0201 (human) [5]): 0.0006
Binder: RLHPYKDFI (modifications not checked) [… (PAP, position 180)]

binding affinity ratio (HLA-A*0201 (human) [4]): 0.0002
Binder: AAPLILSRI (modifications not checked)

binding affinity ratio (IC50 of standard peptide / IC50 of test peptide) (HLA-A*0201 (human) [5]): 0.0001
Binder: SIEPEEFLT (modifications not checked) [… (PSA, position 155)]

binding affinity ratio (HLA-A*0201 (human) [4]): 0.0002
Binder: AQVHPQKVT (modifications not checked) [… (PSA, position 181)]

binding affinity ratio (IC50 of standard peptide / IC50 of test peptide) (HLA-A*0301 (human)): 0.0006
Binder: LGIASGRAR (modifications not checked) [PSM 528 peptide …]

binding affinity ratio (HLA-A*0201 (human) [1]): 0.0002
Binder: HTVPLSEDQL (modifications not checked) [… (PAP position 144, 10-mer)]

binding affinity ratio (HLA-A*0201 (human) [2]): 0.0002
Binder: DTMTKLREL (modifications not checked) [… (PAP, position 230, 9 amino acids)]

binding affinity ratio (HLA-A*0201 (human) [4]): 0.0002
Binder: AAPLILSRIV (modifications not checked)

binding affinity ratio (HLA-A*0201 (human) [1]): 0.0001
Binder: IASKFSERL (modifications not checked) [… (PSM position 642, 9-mer)]

binding affinity ratio (HLA-A*0201 (human) [4]): 0.0002
Binder: AAHCIRNKSV (modifications not checked) [… (PSA, position 59)]

binding affinity ratio (HLA-A*0201 (human) [4]): 0.0002
Binder: AASLSLGFL (modifications not checked) [… (PAP, position 11)]

binding affinity ratio (HLA-A*0201 (human) [4]): 0.0002
Binder: ALPERPSL (modifications not checked) [ALPERPSL (PSA, position 231)]

binding affinity ratio (HLA-A*0201 (human) [4]): 0.0002
Binder: AALFPPEGV (modifications not checked) [… (PAP, position 121)]

binding affinity ratio (IC50 of standard peptide / IC50 of test peptide) (HLA-A*0301 (human)): 0.0003
Binder: LGEYIRKRYR (modifications not checked)

binding affinity ratio (HLA-A*0201 (human) [2]): 0.0001
Binder: EIASKFSERL (modifications not checked) [… (PSM, position 641, 10 amino acids)]

binding affinity ratio (IC50 of standard peptide / IC50 of test peptide) (HLA-A*0201 (human) [5]): 0.0002
Binder: SAHDTTVSGL (modifications not checked) [… (PAP, position 287)]

binding affinity ratio (IC50 of standard peptide / IC50 of test peptide) (HLA-A*0201 (human) [5]): 0.0003
Binder: RLSEPAELT (modifications not checked) [… (PSA, position 121)]

binding affinity ratio (HLA-A*1101 (human)): 0.0002
binding affinity ratio (HLA-A*0301 (human)): 0.0006
Binder: TLVFRHGDR (modifications not checked) [… (PAP, position 39)]

binding affinity ratio (HLA-A*0201 (human) [2]): 0.0001
Binder: DMSLLKNRFL (modifications not checked) [… (PSA, position 98, 10 amino acids)]
